{
  "source": "patent US20160058829A1",
  "about": "“ANTI-FIBROTIC PEPTIDES AND THEIR USE IN METHODS FOR TREATING DISEASES AND DISORDERS CHARACTERIZED BY FIBROSIS” (Thrasos Innovation, Inc., priority 2011, published 2016)",
  "key": {"[1]": {"experiment": "Pharmacokinetics and tissue distribution of 125I-labeled THR-123", "type": "in vivo, Wistar rats", "excerpt": "FIG. 45A-FIG. 45G Pharmacokinetics of THR-123. FIG. 45A. BMP7 structure figure with the residue weights resulting from the analysis mapped on to it. FIG. 45B, FIG. 45C. Radio-ligand receptor binding assays specific for individual type I receptors, Alk-3 (FIG. 45B) and Alk-6 (FIG. 45C). Highly purified extra-cellular domain (ECD) of Alk-3 or Alk-6 (expressed as a fusion protein with Fc domain) served as a receptor. In each assay purified receptor was immobilized on each well and peptide analog or unlabeled BMP7 was added, followed by ^125I-labeled BMP7. Radiolabeled BMP7 complex was counted in an auto-gamma counter. Results were expressed as the mean±s.e.m. Unlabeled BMP7, which served as a positive control in both assays, gave linear dose-related response curves. FIG. 45D, FIG. 45E. Concentration of THR-123 in systemic circulation of Wistar rats following iv injection of THR-123 (^125I-Tyr) via the tail vein determined by total radioactivity measurement. […] FIG. 45F. Tissue distribution of ^125I-THR-123. Six hours after intravenous administration of ^125I labeled-THR-123 in rats at a dose of 6.25 mg/kg-body weight, tissues were harvested and analyzed by automatic gamma well counter. […] FIG. 45G. Oral administration of THR-123 and elimination of THR-123 from the body. Radioactivity of orally administrated ^125I labeled-THR-123 at a dose of 5 mg/kg body weight was localized in the kidney between 1 and 6 hours after administration and peaked at around 3 hours.\nThe persistence of THR-123 in systemic circulation was evaluated using iv-administered ^125I-labeled compound and following the radioactivity decay."}, "[2]": {"system": "human proximal tubule epithelial cells (HK2)", "experiment": "D-glucose-induced EMT assay, E-cadherin immunofluorescence with colorimetric image analysis", "type": "cell-based", "conditions": "D-glucose 50 mM", "method": "Chronic hyperglycemia is a known cause of renal fibrosis in type 2 diabetes. The assay in this example induces the transdifferentiation from the epithelial to the mesenchymal phenotype (EMT) in human proximal tubule epithelial cells (HK2) by exposing them to high levels of D-glucose (100 mM and 200 mM). […] Exposure to 100 mM D-glucose results in the loss of E-cadherine expression as evidenced by the loss of the fluorescene signal. Using this assay test compounds are evaluated based on their ability to inhibit the EMT processes in the presence of high levels of D-glucose. FIGS. 4-16 are fluorescence micrographs of HK2 cells exposed to 100 mM D-glucose and 100 uM of SEQ IS NOs 1 through 11, respectively. Note that all but SEQ ID NOs 10 and 11 were able to preserve the epithelial phenotype (i.e., inhibit the EMT).\nResults are provided in the context of FIG. 1 and Table 3, below. In Table 3 below, compound response is scored using image analysis as described herein in the method of Methods and Materials, part C. A 0% response corresponds to the signal for 100 mM (or 200 mM) D-glucose (untreated) while the 100% response corresponds to the signal for media in the absence of D-glucose.\nIt has been shown that transdifferentiation of proximal tubular epithelial cells is a critical step in the development of renal fibrosis, and that this is associated with a loss of the epithelial phenotypic marker, E-cadherin expression. This provides the basis for the development of a cell-based screening assay in which high concentrations of D-Glucose (50-100 mM) are used to induce a loss of E-cadherin expression in human renal proximal tubular epithelial (HK-2) cells, and compounds are tested for their ability to reverse the loss E-cadherin expression.\nMaterials: • Human proximal tubular epithelial cells, HK-2 (ATCC #CRL-2190) • Serum-free keratinocyte medium (GIBCO #17005-042, K-SFM) • Epidermal growth factor (EGF: 5 ng/mL) • Bovine pituitary extract (BPE: 40 ug/mL) • Primary antibody, Mouse IgG anti-E-cadherin (R&D Systems # MAB1838) • BSA [Sigma #A7030] • secondary antibody, FITC-conjugated Goat anti-mouse IgG (Fab2) fragment (Sigma-Aldrich # F-2653) • Paraformaldehyde (10%)) • Triton X-100 (Sigma # T-9284) • PBS (Fisher Scientific #BP399-1) • D-PBS (Invitrogen #14190-144) • Polypropylene tips (Axygen, Inc. 0.5-10 uL, cat # T-300-L-R; 1-200 uL, Cat # T-200-L-R; 1-1000 uL, Cat # T-1000-C-L-R) • 50 mL polypropylene culture tubes (Fisher Scientific, cat #06-443-18) • 24-well Coster cell culture plates (Fisher Scientific #07-200-84)\nReagents & Test Samples: • Positive control: BMP-7, assayed at concentrations 0.1 and 1 ug/mL • Test compounds (peptides): each tested at final concentrations 100 uM and 200 uM.\nAssay Procedure for Cell Culture Assay: • Run assay in 24-well culture plates. • Seed HK-2 cells at a density between 25,000 and 30,000 cells per well in lmL K-SFM medium with supplements added (growth medium) • Incubate HK-2 cells for 24 hours at 37° C., and let cells attach the plate • Next Day afternoon, change the medium with K-SFM medium with no added supplements (serum free medium) in all wells except the first two control wells. • Continue incubating HK-2 cells overnight at 37° C. • Next Day, aspirate the medium from all wells. Incubate the cells in growth medium (first two control wells) or expose them to test compounds for 2 hours at 37° C. Final concentrations of each Test compound are 100 and 200 uM. BMP-7 serves as a positive control in the assay. • After incubation, add D-glucose to all wells except first two control wells. Final concentrations of D-Glucose are 50 and 100 mM. • Incubate HK-2 cells for 60 hours at 37° C. • Aspirate the medium from all wells. To the wells, add pre-warmed growth medium or serum free medium containing D-glucose alone or D-glucose and test compound or D-glucose and BMP-7. Final concentrations of D-Glucose and Test compound are the same as above. • Continue incubating HK-2 cells for 24 hours at 37° C. […]"}},
  "note": "Positions of bridges follow the written chain, without caps; N, C: chain ends.",
  "data": [
    {"substance": "(H)-CYFDDSSNVLCKKYRS-(OH) (H-CYFDDSSNVLCKKYRS-OH; disulfide 1-11; SMILES CC(C)C[C@@H]1NC(=O)[C@H](C(C)C)NC(=O)[C@H](CC(N)=O)NC(=O)[C@H](CO)NC(=O)[C@H](CO)NC(=O)[C@H](CC(=O)O)NC(=O)[C@H](CC(=O)O)NC(=O)[C@H](Cc2ccccc2)NC(=O)[C@H](Cc2ccc(O)cc2)NC(=O)[C@@H](N)CSSC[C@@H](C(=O)N[C@@H](CCCCN)C(=O)N[C@@H](CCCCN)C(=O)N[C@@H](Cc2ccc(O)cc2)C(=O)N[C@@H](CCCNC(=N)N)C(=O)N[C@@H](CO)C(=O)O)NC1=O) [SEQ ID NO: 1]", "values": [
      {"measurement": "share of the injected dose in the beta phase", "setting": "[1]; iv", "result": 10, "unit": "%"},
      {"measurement": "alpha phase half-life", "setting": "[1]; iv, 125I-labeled", "result": "very short half-life"},
      {"measurement": "beta phase half-life", "setting": "[1]; iv, 125I-labeled", "result": "55 to 58", "unit": "min"},
      {"measurement": "decrease of THR-123 levels in plasma and whole blood within 5 minutes", "setting": "[1]; iv, 125I-labeled", "result": "~90", "unit": "%"},
      {"measurement": "share of the injected dose in the alpha phase", "setting": "[1]; iv, tail vein, total radioactivity", "result": "approximately 90%"},
      {"measurement": "clearance of radioactivity from the kidney", "setting": "[1]; oral, 24 hours after administration", "result": "completely cleared"},
      {"measurement": "tissue distribution of radioactivity", "setting": "[1]; six hours after iv 6.25 mg/kg, listed as THR-123, 6.25 mg/kg", "result": "majority of the radioactivity was still localized in the kidney and bladder"},
      {"measurement": "prevention of D-glucose induced loss of epithelial phenotype (E-cadherin expression)", "setting": "[2]", "result": "effectively prevents"}
    ]}
  ]
}
